According to patent US5591427A, “Human Interleukin-3(Il-3) variants and their use to promote or antagonize IL-3-mediated processes” (Medvet Science Pty. Ltd., priority 1979, dated 1997):

Assays:
[1] = system: chronic myeloid leukaemic (CML) cells; experiment: Proliferation of chronic myeloid leukaemic (CML) cells, [3H] thymidine incorporation; assay type: cell-based, human
Method: (b ) Proliferation of chronic myeloid leukaemic (CML) cells: Primarily CML cells from one patient were selected for their ability to incorporate [^3 H] thymidine in response to IL-3 as described (Lopez el. al., supra ). Briefly, CML cells were placed at 2×10^5 cells/mL fresh medium containing different concentrations of IL-3. Cells were incubated for 24 hours in a flat bottom 96-well NUNCLON plates (2×10^4 cells/well) before being pulsed with [^3 H] thymidine (0.5 μCi/well) for four more hours at 37° C. The cells were then harvested onto glass filters with a Titertek automated cell harvester and counted into a Beckman liquid scintillation counter. Data are expressed in cpm, and each point is the mean of six replicates.

[2] = target: T1, IL-3 high affinity receptor of monocytes (Homo sapiens, UniProt P26951+P32927); experiment: Competition for 125I-IL-3 binding to the high affinity receptor of monocytes; conditions: high affinity receptor on monocytes
T1 construct: endogenous in cells; host or cells: freshly purified human peripheral blood monocytes
T1 sequence (P26951 19-378): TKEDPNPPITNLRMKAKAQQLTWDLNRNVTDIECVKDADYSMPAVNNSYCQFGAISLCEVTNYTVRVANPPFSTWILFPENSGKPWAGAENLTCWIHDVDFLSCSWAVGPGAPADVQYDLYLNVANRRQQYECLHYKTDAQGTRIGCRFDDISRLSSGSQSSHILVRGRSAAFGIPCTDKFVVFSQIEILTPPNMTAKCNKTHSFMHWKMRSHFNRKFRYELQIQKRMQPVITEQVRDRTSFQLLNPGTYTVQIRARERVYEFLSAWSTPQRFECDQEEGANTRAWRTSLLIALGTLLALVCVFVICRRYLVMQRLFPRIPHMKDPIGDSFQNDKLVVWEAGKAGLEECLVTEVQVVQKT
T1 sequence (P32927 17-897): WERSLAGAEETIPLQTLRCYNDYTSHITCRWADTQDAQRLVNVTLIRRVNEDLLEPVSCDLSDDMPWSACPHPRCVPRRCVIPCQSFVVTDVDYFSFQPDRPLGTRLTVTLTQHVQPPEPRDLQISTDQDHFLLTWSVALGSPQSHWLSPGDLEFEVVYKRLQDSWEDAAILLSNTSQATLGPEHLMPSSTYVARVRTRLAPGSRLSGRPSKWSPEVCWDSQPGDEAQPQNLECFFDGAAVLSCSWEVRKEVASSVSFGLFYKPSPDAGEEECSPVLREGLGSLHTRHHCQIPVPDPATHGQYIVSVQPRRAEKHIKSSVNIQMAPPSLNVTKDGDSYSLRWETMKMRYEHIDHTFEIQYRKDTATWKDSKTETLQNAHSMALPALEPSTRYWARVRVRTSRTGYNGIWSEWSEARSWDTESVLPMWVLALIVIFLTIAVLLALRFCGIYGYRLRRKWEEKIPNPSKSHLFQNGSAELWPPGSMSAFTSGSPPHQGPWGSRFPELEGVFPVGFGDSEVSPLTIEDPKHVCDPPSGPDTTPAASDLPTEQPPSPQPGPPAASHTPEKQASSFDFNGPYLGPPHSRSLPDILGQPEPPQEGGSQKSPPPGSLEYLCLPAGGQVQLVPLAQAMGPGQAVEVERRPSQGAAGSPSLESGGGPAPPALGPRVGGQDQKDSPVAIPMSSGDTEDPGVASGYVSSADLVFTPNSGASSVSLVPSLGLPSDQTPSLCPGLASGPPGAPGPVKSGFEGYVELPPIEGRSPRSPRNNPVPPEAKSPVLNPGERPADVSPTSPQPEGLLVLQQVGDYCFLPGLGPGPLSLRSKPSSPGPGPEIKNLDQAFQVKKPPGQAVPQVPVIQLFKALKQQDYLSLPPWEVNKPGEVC
Method: (a) Radioiodination of hIL-3: rh IL-3 (gift from Dr. L. Park, Immunex Corporation, Seattle, Wash.) was radioiodinated by the ICI method as previously described (Contreras et. al., supra). Iodinated protein was separated from free ^125 I by chromatography on a Sephadex G-25 PD 10 column (Pharmacia, Uppsala, Sweden) equilibrated in phosphate-buffered saline (PBS) containing 0.02% Tween 20, and stored at 4° C. for up to 4 weeks. Before use, the iodinated protein was purified from Tween and nonprotein-associated radioactivity by cation exchange chromatography on a 0.3-ml CM-Sepharose CL-6B column (Pharmacia) and stored at 4° C. for up to 5 days.
(b) Competition Binding assay. Freshly purified monocytes were suspended in binding medium consisting of RPMI 1640 supplemented with 20 mmol/L/HEPES and 0.5% bovine serum albumin (BSA). […] Cell suspensions were then overlaid on 0.2 mL FCS at 4° C. and centrifuged for 30 seconds at a maximum speed in a Beckman Microfugre 12. The tip of each tube was cut off above the visible cell pellet and counted in a Packard Auto-Gamma 5650 (Downer's Grove, Ill). The results are expressed as Percent competition where 100% is the competition observed in the presence of 100 fold excess native IL-3.

B1: M37: human IL-3 mutant, Asp 101 replaced by Ala and Lys 116 by Val (protein, UniProt P08700 20-152, looked up, variant D101A K116V)
Interleukin-3: APMTQTTPLKTSWVNCSNMIDEIITHLKQPPLPLLDFNNLNGEDQDILMENNLRRPNLEAFNRAVKSLQNASAIESILKNLLPCLPLATAAPTRHPIHIKAGDWNEFRRKLTFYLVTLENAQAQQTTLSLAIF
Q: Which “stimulation of CML cell proliferation” value ([1]; FIG. 2, FIG. 8) does the source give for B1 here?
A: more potent than the wild type IL-3

Q: And the “Relative biological activity, PROLIFERATION CML” value ([1]; concentration of IL-3 mutant giving 50% of biological activity compared to that of wild type IL-3)?
A: 1694

Q: And the “increase in biological activity versus wild type” value ([1]; summary statement over the functional assays of the Table (colonies, CML, monocyte))?
A: 15-20 fold

Q: What about the “fold higher binding affinity than wild-type IL-3” value [2] of the same molecule?
A: 10-15 fold

Q: And the “fold higher binding affinity than wild-type IL-3” value ([2]; listed as IL-3 (Ala^101, Val^116))?
A: 16 fold
